Values quoted from earlier work as cited in US9856460B2, “Nucleic acids encoding synthetic scaffolds and host cells genetically modified with the nucleic acids” (The Regents of the University of California, priority 2008, dated 2018).
pKd: −log10 of the molar value.

Target: T1, WASP GBD (Rattus norvegicus, UniProt O08816)
T1 construct: 196-274
Conditions: partner WASP GBD; measured in trans

T1 sequence (O08816 196-274): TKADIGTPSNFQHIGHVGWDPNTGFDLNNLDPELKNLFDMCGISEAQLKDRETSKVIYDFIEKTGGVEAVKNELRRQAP

Substance: GBD interaction ligand LVGALMHVMQKRSRAIHSSDEGEDQAGDEDED, SEQ ID NO: 30, partner WASP GBD [GBD lig.]
- pKd: 6.00
